Our source for the S:B Binding and S:B Expression values is patent publication US20200262898A1.

Test [1] addresses T1, CD151 (UniProt P48509).
T1 sequence (looked up): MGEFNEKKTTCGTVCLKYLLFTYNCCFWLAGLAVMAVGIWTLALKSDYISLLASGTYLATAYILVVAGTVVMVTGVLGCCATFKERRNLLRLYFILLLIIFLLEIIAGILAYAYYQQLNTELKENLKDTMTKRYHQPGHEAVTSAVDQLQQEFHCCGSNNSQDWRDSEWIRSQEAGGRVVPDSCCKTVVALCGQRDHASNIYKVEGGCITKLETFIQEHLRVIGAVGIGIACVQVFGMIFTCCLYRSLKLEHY
The experiment in a line: flow cytometry on cells transfected with the target; signal over mock-transfected cells (background = 1.0). For orientation: A flow cytometer gives signals particle by particle.

The target of test [2] is Fc-binding protein (the ZZ domain of ProA). The experiment in a line: flow cytometry on cells expressing the Fc-binding ZZ domain on their surface; given as a measure of expression.
The target of test [3] is CD63 (UniProt P08962). As to the kind of experiment: flow cytometry on cells transfected with the target; signal over mock-transfected cells (background = 1.0).
Test [4] concerns the target T2, IGSF8 (UniProt Q969P0).
T2 sequence (looked up): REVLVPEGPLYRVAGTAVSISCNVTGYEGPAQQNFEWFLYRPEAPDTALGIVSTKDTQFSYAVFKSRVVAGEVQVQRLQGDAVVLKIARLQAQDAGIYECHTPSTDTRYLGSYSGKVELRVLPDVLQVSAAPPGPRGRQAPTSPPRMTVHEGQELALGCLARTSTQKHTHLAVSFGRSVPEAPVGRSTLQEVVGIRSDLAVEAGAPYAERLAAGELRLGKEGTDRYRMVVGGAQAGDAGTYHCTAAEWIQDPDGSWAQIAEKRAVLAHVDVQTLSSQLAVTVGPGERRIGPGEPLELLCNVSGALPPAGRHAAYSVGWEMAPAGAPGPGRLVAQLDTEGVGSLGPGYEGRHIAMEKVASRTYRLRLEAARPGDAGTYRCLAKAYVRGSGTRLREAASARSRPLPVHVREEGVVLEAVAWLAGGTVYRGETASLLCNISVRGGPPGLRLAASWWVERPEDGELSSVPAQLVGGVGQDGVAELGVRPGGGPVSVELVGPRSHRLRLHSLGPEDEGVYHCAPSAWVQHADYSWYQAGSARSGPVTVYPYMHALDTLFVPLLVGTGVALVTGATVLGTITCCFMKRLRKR
The description is as above.

Test [5] concerns the target T3, CD59 (UniProt P13987).
T3 sequence (looked up): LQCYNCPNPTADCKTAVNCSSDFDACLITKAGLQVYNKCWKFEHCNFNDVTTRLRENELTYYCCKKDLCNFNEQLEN
Described as above.

The target in test [6] is T4, CD81 (UniProt P60033).
T4 sequence (looked up): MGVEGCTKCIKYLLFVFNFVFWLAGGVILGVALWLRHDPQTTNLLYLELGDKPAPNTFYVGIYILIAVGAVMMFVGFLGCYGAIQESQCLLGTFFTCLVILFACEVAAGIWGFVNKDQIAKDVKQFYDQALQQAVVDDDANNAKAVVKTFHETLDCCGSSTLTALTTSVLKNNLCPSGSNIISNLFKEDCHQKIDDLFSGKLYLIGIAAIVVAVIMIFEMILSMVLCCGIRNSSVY
Described as above.

Test [7] deals with CD147 (UniProt P35613). The description is as above.

B1: Antibody of common light chain F10 (F10chicken) paired with the heavy chain against CD151 (antibody, V domains shown)
VH: AVTLDESGGGLQMPGGALSLVCKASGFTFSSYGMEWVRQAPGKGLEWVAGISSGGGSTDYGTAVKGRATISRDNGQSTVRLQLNNLRAEDTGTYFCAKSAYGGTWDGDDIDAWGHGTEVIVSS
VL: ALTQPSSVSANPGETVKITCSGGYNGHYGWYQQKSPGSAPVTVIYSNNQRPSNIPSRFSGSTSGSTSTLTITGVRAEDEAVYFCGGYDSSAGIFGAGTTLTVL
For the molecule B1, the S:B Binding in test [1] was 25.1 S:B. Further, the S:B Expression in test [2] was 13.7 S:B.

B2: Antibody of common light chain F10 (F10chicken) paired with the heavy chain against CD63 (antibody, V domains shown)
VH: AVTLDESGGGLQTPGGALSLVCKASGFTFSDRGMHWVRQAPGKGLEWVAGIRSTGSFTLYGAAVKGRATISRDDGQSTLRLQLNNLRAEDTGTYYCAKSAGGYGCGRGWCGVDDIDAWGHGTEVIVSS
VL: ALTQPSSVSANPGETVKITCSGGYNGHYGWYQQKSPGSAPVTVIYSNNQRPSNIPSRFSGSTSGSTSTLTITGVRAEDEAVYFCGGYDSSAGIFGAGTTLTVL
Consider B2, for which, in test [3], the S:B Binding was 5.2 S:B. For the same molecule, the S:B Expression in test [2] was 15.5 S:B.

B3: Antibody of common light chain F10 (F10chicken) paired with the heavy chain against IGSF8 (antibody, V domains shown)
VH: AVTLDESGGGLQTPGGGLSLVCKASGFSISSYEMQWVRQAPGKGLEWVAGIDDDGSSRAYAPAVKGRATISRDNGQSTVRLQLNNLRAEDTGTYYCAKTIYAATLNAGEIDAWGHGTEVIVSS
VL: ALTQPSSVSANPGETVKITCSGGYNGHYGWYQQKSPGSAPVTVIYSNNQRPSNIPSRFSGSTSGSTSTLTITGVRAEDEAVYFCGGYDSSAGIFGAGTTLTVL
For the molecule B3, the S:B Binding in test [4] is 1.6 S:B. In addition, the S:B Expression in test [2] was 11.9 S:B.

B4: Antibody of common light chain F10 (F10chicken) paired with the heavy chain against CD59 (antibody, V domains shown)
VH: AVTLDESGGGLQTPGGGLSLVCKASGFDFSSFDMVWVRQAPGKGLEWVAGISYSNTDTSYAPAVDGRATISRDNGQSTVRLQLNNLRAEDSATYYCAKSAGGCCYRADNIDAWGHGTEVIVSS
VL: ALTQPSSVSANPGETVKITCSGGYNGHYGWYQQKSPGSAPVTVIYSNNQRPSNIPSRFSGSTSGSTSTLTITGVRAEDEAVYFCGGYDSSAGIFGAGTTLTVL
As to B4, the S:B Binding in test [5] is 14.6 S:B. The S:B Expression in test [2] was 12.2 S:B.

B5: Antibody of common light chain F10 (F10chicken) paired with the heavy chain against CD81 (antibody, V domains shown)
VH: AVTLDESGGGLQTPGGALSLVCKASGFSIGDYNMGWVRQAPGKGLEWVAGIDAGGGTWRATAVKGRATISRDNGQSTVRLQLNNLRAEDTATYFCAKSTDSSANCCANSIDAWGHGTEVIVSS
VL: ALTQPSSVSANPGETVKITCSGGYNGHYGWYQQKSPGSAPVTVIYSNNQRPSNIPSRFSGSTSGSTSTLTITGVRAEDEAVYFCGGYDSSAGIFGAGTTLTVL
In the case of B5, the S:B Binding in test [6] was 0.4 S:B. Further, the S:B Expression in test [2] is 11.1 S:B.

B6: Antibody of common light chain C11 (C11chicken) paired with the heavy chain against CD147 (antibody, V domains shown)
VH: AVTLDESGGGLQTPGGGLSLVCKASGFTFSSYAMYWVRQAPGKGLQWVAGISRDGSSGRYGAAVKGRATISRDNGQSTVRLQLNNLRAEDTATYFCAKSGYGDYTSADEIDAWGHGTEVIVSS
VL: ALTQPSSVSANPGETVKITCSGGGSWYGSYYYGWYQQKSPGSAPVTLIYNNDKRPSDIPSRFSGSESGSTATLTITGVQAEDEAVYFCGGYDSTTTDMFGAGTTLTVL
In the case of B6, the S:B Binding in test [7] was 1.4 S:B.

B7: Antibody of common light chain B9 (B9chicken) paired with the heavy chain against CD147 (antibody, V domains shown)
VH: AVTLDESGGGLQTPGGGLSLVCKASGFTFSSYAMYWVRQAPGKGLQWVAGISRDGSSGRYGAAVKGRATISRDNGQSTVRLQLNNLRAEDTATYFCAKSGYGDYTSADEIDAWGHGTEVIVSS
VL: ALTQPSSVSANPGETVKITCSGGGSSNYYGWYQQKSPGSAPVTLIYGTNKRPSDIPSRFSGSKSGSTGTLTITGVQADDEAVYFCGSADSSTNAGIFGAGTTLTVL
With B7, in test [7], the S:B Binding was 10.3 S:B.

B8: Antibody of common light chain F10 (F10chicken) paired with the heavy chain against CD147 (antibody, V domains shown)
VH: AVTLDESGGGLQTPGGGLSLVCKASGFTFSSYAMYWVRQAPGKGLQWVAGISRDGSSGRYGAAVKGRATISRDNGQSTVRLQLNNLRAEDTATYFCAKSGYGDYTSADEIDAWGHGTEVIVSS
VL: ALTQPSSVSANPGETVKITCSGGYNGHYGWYQQKSPGSAPVTVIYSNNQRPSNIPSRFSGSTSGSTSTLTITGVRAEDEAVYFCGGYDSSAGIFGAGTTLTVL
For B8, the S:B Binding in test [7] is 5.7 S:B. The S:B Expression in test [2] was 15.5 S:B.
